In test [1] the target is KIR3DL2 on fresh Sezary Syndrome cells of patients (human) (UniProt P43630). As to the kind of experiment: flow cytometry of whole blood of a Sezary Syndrome patient, antibody + GaM-PE against CD4; upper gate (CD4+ cells). On the technique in general: A flow cytometer gives signals particle by particle.
The target in test [2] is NK cells, including normal KIR3DL2+ NK cells (Homo sapiens) (UniProt P43630). The experiment in a line: flow cytometry of whole blood of a Sezary Syndrome patient, antibody + GaM-PE against CD4; lower gate (CD4-negative NK cells).
NK cells, including normal KIR3DL2+ NK cells (Homo sapiens), sequence (P43630 22-455 limits assumed): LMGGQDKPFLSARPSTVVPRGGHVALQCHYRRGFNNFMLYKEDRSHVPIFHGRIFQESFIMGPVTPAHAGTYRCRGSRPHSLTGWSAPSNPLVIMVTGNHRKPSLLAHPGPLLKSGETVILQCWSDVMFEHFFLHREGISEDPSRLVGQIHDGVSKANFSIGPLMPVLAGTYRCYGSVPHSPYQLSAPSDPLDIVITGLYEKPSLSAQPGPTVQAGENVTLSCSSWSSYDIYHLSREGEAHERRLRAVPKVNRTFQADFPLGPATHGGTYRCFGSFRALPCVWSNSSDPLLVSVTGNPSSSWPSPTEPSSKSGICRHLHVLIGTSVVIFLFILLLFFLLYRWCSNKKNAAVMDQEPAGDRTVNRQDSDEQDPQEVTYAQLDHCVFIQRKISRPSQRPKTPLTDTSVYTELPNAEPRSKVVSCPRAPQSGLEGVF

KIR3DL2 on fresh Sezary Syndrome cells of patients (human), sequence (P43630 22-455): as the sequence (P43630 22-455 limits assumed) above

With Isotype Control (antibody), the % of cells in gate CD4 GaM PE+ in test [1] came to 0.1%. Also, the % of cells in gate NK GaM PE+ in test [2] was 0.9%.

The values above are taken from US20150291692A1.
